Measurements: the NTF2 design screens of Basanta et al. (2020)

Assay: protease stability score; higher = more stable; yeast display proteolysis, trypsin and chymotrypsin;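 note: log10 excess protease needed over predicted unfolded state with 0 meaning unfolded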

Sequence | protease stability score
DEEVAEQAAKLLEHNDFEKLVDMVDPNVDVEYGDKTVSGRNRVKRVMEKWTRRYDHYEIHTYSISNGRLSADVRAVVNGREVRYVQTIRVHNGRIQKMKIDVTDEDDERNLRKLES | -0.161
DREEVKKIKRLIETNDWRTLAQQADENVEIVYGNKTIHGREQALKFWDILRKHADHIEIKRFDNQGDKVRVNMTVEVNGRHITMNMNIVFHNGRLKEVEIRVTDEKQLKEIEDLVQ | 1.59
DEDKLKSMFRQLQRVLTQGNPHDARKLFDEDAHLVVGDKRWTGREEVVKFIEELTRRYDHLEIKSFSVSNGRMVVNASAHVNGKSIDIHYIMEVDNGRVKYLRVDVRNEEELKKVLS | 1.27
DEHNVRLAERLLHAIDTNDPKRVKEQVDKDVEYEVGDKRVHGRDDYIKQVETEIRQMSIHIQSMDIHSNGDKVNVRVTYTFTVDGRPQEDTVDYEVQFDNGKVRTVRNRFSEEQEERQKK | -0.245
DDDHARRLAERFIKAFQKGDEERAKDLAPPDVKVHVGDTQYNGREQMKQAVKDFRERVDHLSVETIKVRNGRVEVHATANINGVEVNVVFTFVFRNGKMKSMDLKYRDEEAHRNWTS | 1.19
DERENQENVEEMNRVLQSGDEDRMKELVDPNATAVVGEKRVHGRETIKDEIRRFKDHADHITVERVTAKGNSAIIDIVYNVNGRETTIIVIANVHNGKIRHLHFQKS | 0.301
DEEARNVFEEILKAIRHGDPDHAKNLADPNARIRVGDKKVDGMEQWATEMHHNWQEIRIHMRITSVDHQGEKVRLHLSRTSNHNGRPRKADIDLEMVATNGKLKSQKHSQKK | 0.2
DEERVRKVVEKLVDAVTRGDKDDIKKMLKKHVEFKLVDQEYKGVDQAVKVVKELHDYGMEVHVKEVRVKGDTAHATTVWKKGNTEAHVKVEYHVRDDKVEKVKIQWTEEAQKALKHG | 0.283
DKEEVQRIVEEMLKFVESGDIKKLVDHGKEGVRYRLGDEEAHGPEAIKKMVVKMKKVGLRIEVKEYQVEGDTATTKLKYQLGDTEDTVEVNAQAQGGRIDQVNADVDKTAVDMIKQG | 0.048
DDEFLKKVVEVIRHGDEERLVRNFDENARMRIGDKVFHGREEIKKALHRIREHADHIDVESVDQQGDTLDADVFIEVNGKNWVFKLKVTVHNGRIKEVSWHVRDEDADNIMKEIMS | 1.8
DEKKVKELVDTLFDVMRKGDAERFRRYLKPDVRFEFGDITMQGPDQMEKYYRQDQKYGNEMHIKHKEVHGDRAKVTYDVEIKGTRATVEAEVHVRDEKVDEAKAEFDEDYKKYFTKG | -0.121
DKEAVNIATRYMKAWEQGDSDTLMKLMDEDVRVHYGDKVLEGREDVSRDLKRLLDHAQFEIKHVTNKDNGSVVIVNFHMIVNVNGEPVEVKVVVHFHMHNGRIKQIVIRIDPKQLRQIKG | 1.41
DDEDVNRHAESISRALERGDEERLLELLDENVTVEYGDKRVHGREEIERFLREFHRHADHIKVDRVKARGNKVRIRAVNDYDGRKVDYVFHFQFENGRVRKVKIEEK | 1.29
DEEALKKLQDILRRNDQDKMNKMIDKDVRVVIGEHEYRGKRNVQEALKREYEHADRFEVKHIEDHGDKLHVDVVLRVDGRDIRFVVVIDVHNGNIRNVKVDFTDEDTQRDFQRQLD | 1.01
DRTKTAKKVWDDFRSIMENNDPKEAEKLFDENAKADLGSKQVHGREQMVEMLRELAERVDHVEIRMKTVTDDNGQLNIEAEVRAEINGKQHTWRNQLNVVQQGDKRRIVSAKYG | -0.42
DDEDNKRKAEEFVRLMHTGDEERIKELFDPNVKAVIGDKEYHGRDTVADWARRLREQADHFDVHRMTAQGDRVHVDMFVTHNGRTKRVVIVLKYHNGRVEEIKVQDG | 2.28
DEETDAKKAKDDMQHVANTNNPKDRETLLDENAEIVVGDEKYQGRHDVQKLNQEIEKRVDEVRVEVTEVTIQGDKLHVDAVFRVRVNGKTEQDRKVIVMDIHNGSVKVRFIHQP | 0.94
DEEHVDQLLRKIFEILRNGDEKKLQDNFDPNVKATYGDRDITGMHSIAKTLAELFQRADHVNLRSMEVNGDKMRMQVSVQVDGRRATLEVNMRQHNGKVKELNLDPRRIKQFES | -0.169
DEDDWRKRMKKVVEVLRTGNPDTMVDMVDENAKAKYGDKEYHGREQIHKWMEDRQKRYDHVNVKHMHIQGNKVNISAVYVVNGRSEDRQLQVVFDNGKIKSMRVTEQ | -0.053
DHEDAEKMKDLLTAEQQNDPDKVKEQADPNAQFRIGDQKVHGRNQYARIVKTLMERADVHILRIDNKDHNGQVHVSIDRVIDYNGRPKRDTETATARFHNGRLKELHIQFDPKKYQELKK | 0.027
DEDEERQFAKDLMRAMEKNDPKLLVKLADKDVSINYGEKQVHGKRQAEQLMRDLHKRVDDIKVRHVSMHNGSLTINLVLNVNGHNENLVAIVRVENGRIKSLTFEHR | 0.861
DEKNEDAARKLFNAWKQNDPDHARKLADPNVRFKYGDTQVHGRDQYARELRETNKQMRLEYKHVTIRVKNGNAEVNMNVRYNHNGQPRESTRRMTFKVENGKLVDVDIKTDK | 0.133
DDDQARKFVNIVQTGDEDKLLELAPPDVRVKVGDHRVHGRENVKRMVEKLKKSVDHFSIRQIHVHNGRVHVDMDVNVNGQTIRAEYVFVAHNGKLEEISIEVTDETVHDLMTRILS | 0.665
DEEHREDSIRKVFEVLQTGDPKRFRENVDKNAKARVGDREVRGTKAADTFAHNIVKRADHVRIRRVHVHNGVVVVTEQQTVNGKEVIMVVFMEMNNGKMKLVEVNPEQLKELEG | -0.394
DKENLETLHELMTALERGDEQKVADEIDPNAKLQYGDKEIHGRKQAHRFIKTVKDQQRFHIQVKDLKVKGDTMDLRAEVEFQHNGHPDSDVIVVNARAHNGHISTLTVTKDD | -0.223
